B1: rmAb 460 IgG1 (antibody, V domains shown)
VH: EVQLQQSGAELVKPGASVKLSCTASGFNIKDTYMHWVKQRPEQGLEWIGRIDPANGNTKYDPKFQGKATITADTSSNTAYLQLSSLTSEDTAVYFCTRSRGYFGNYYFDYWGQGTTLTVSS
VL: QIVLTQSPAVMSASPGERVTMTCSASSSVSYMYWYQQKPRSSPKPWIYLTSNLASGVPARFSGSGSGTSYSLTISSMEAEDAATYYCQQWSSIPLTFGAGTKLELK
B2: N-terminally palmitoylated MPER peptide (peptide)
peptide: Palmitoyl-DLLELDKWASLWNWFNITNWLWYIK
B3: rmAb 235 IgG1 (antibody, V domains shown)
VH: QVQLQQSGTDLVRPGTSVKVSCKASGYAFTTYFIEWVKQRPGQGLEWIGVINPGSGIPNYNEMFKGKATLTADKSSSTAYLHLSSLTSDDSAVYFCARAPYYYGSSYYYFDVWGAGTTVTVSS
VL: DIVMSQSPSSLAVSVGEKVTMSCKSSQSLLYSSNQKNYLAWYQQKPGQSPKLLIYWASTRDSGVPDRFTGSGSGTDFTLTISSVKAEDLAVYCCQQYYNYPFTFGAGTKLEIK

Where no end group is shown, it is not given here. The star is where a group is joined. Palmitoyl = CCCCCCCCCCCCCCCC(=O)*

Targets include 275; 274; 203; 484.
Assay in all cases: SPR; liposome-bound MPER
Background: In SPR one partner is held on a chip, and binding of the other changes the refractive index at the surface.

For assay [1], the target named is B2.

For B1, binding in assay [1] was characterised by a dissociation constant (Kd) of 14 nM.
For B2, the Kd – broadly, the equilibrium constant for the complex coming apart – with 275 is 18 nM; in the assay with 274 it was 63 nM; in the assay with 203 it was 29 nM; in the assay with 484 it was 5.5 nM.
B3: the affinity in assay [1], expressed as Kd, was 11 nM.

The record behind these values is PMC10632514 (2023).
